Experimental data from patent US20200140562A1 (Innovent, published 2020).

T1: human OX40 on cells (CHO-hOX40, 293HEK-hOX40, Jurkat-hOX40, activated primary CD4+ T cells) (human, UniProt P43489 29-277)
T1 construct: whole, on cells; The cell type is told in each assay; also called CHO-OX40
T1 sequence (looked up): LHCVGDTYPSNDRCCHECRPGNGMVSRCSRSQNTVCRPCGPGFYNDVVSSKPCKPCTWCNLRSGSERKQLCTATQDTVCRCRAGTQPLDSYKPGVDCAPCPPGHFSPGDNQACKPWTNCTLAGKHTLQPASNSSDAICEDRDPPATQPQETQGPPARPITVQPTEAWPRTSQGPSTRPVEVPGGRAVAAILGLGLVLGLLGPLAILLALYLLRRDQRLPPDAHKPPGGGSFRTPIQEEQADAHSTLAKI

T2: mouse OX40Fc (Acro Biosystems) (mouse, UniProt P47741 20-211, limits assumed)
T2 construct: Bought; not shown: Fc
T2 sequence (looked up): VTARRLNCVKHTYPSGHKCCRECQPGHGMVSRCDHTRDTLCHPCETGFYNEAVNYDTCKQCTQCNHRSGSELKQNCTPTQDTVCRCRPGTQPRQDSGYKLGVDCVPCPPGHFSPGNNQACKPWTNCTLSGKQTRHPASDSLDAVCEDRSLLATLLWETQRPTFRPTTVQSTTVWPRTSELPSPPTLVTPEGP

T3: Human biotinylated OX40-His monomer (human, UniProt P43489 29-216, limits assumed, biotinylated)
T3 construct: Bought from Acro Biosystems; also called biotin-OX-40 monomer; not shown: His tag
T3 sequence (looked up): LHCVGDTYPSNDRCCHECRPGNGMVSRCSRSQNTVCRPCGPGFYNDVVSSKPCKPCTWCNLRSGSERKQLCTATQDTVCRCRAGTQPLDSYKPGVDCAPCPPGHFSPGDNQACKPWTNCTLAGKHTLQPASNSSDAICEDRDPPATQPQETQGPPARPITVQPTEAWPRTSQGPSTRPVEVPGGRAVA


What was measured:
[1] = molecular target: T4, human OX40_Fc (R&D Systems) (human, UniProt P43489 29-216); assay: BLI, hOX40-Fc on tip, Fab 200 nM, monovalent
T4 construct: Bought

[2] = molecular target: T1, human OX40 on cells (CHO-hOX40, …); assay: flow cytometry, CHO-hOX40, 100 nM
[3] = molecular target: T4, human OX40_Fc (R&D Systems); assay: BLI, IgG1 on tip, hOX40-Fc 50 nM, avid
[4] = molecular target: T5, cyno OX40_Fc (Acro Biosystems) (cyno); assay: BLI, IgG1 on tip, cyno OX40-Fc 100 nM, avid
T5 construct: Bought
Protocol: Sensors with loaded antibodies were exposed to 100 nM OX40 antigens for 5 min, afterwards they were transferred to assay buffer for dissociation of 5 min for off-rate measurement. Kinetics was analysed using the 1:1 binding model.

[5] = molecular target: T2, mouse OX40Fc (Acro Biosystems); assay: BLI, IgG1 on tip, mouse OX40-Fc in solution
[6] = molecular target: T1, human OX40 on cells (CHO-hOX40, …); assay: flow cytometry, MFI on CHO-hOX40 over wild-type CHO
[7] = molecular target: T4, human OX40_Fc (R&D Systems); assay: BLI, hOX40-Fc on tip, Fab 200 nM, monovalent; remark: listed apart in the source
[8] = molecular target: T3, Human biotinylated OX40-His monomer; assay: MSD-SET, biotinylated OX40-His monomer with Fab

Kd [1] [nM] | Kd [7] [nM] | Kd [8] [nM] | Binder | also measured
25.8 | – | – | ADI-20051, Fab (Fab, V domains shown) VH: QVQLQQWGAGLLKPSETLSLTCAVYGGSFSGYYWSWIRQPPGKGLEWIGEIDHSGSTNYNPSLKSRVTISVDTSKNQFSLKLSSVTAADTAVYYCARDGGGGYASPFDYWGQGTLVTVSS VL: EIVMTQSPATLSVSPGERATLSCRASQSVSSNLAWYQQKPGQAPRLLIYGASTRATGIPARFSGSGSGTEFTLTISSLQSEDFAVYYCQQYHAWPPTFGGGTKVEIKR | –
– | – | – | ADI-25652, IgG1 format (antibody, V domains shown, Made in yeast) VH: QVQLVESGGGVVQPGRSLRLSCAASGFTFVSYNMHWVRQAPGKGLEWVAVIAYDGSVKYYADSVKGRFTISRDNSKNTLYLQMNSLRAEDTAVYYCARGRPWYSETGTSAFDIWGQGTMVTVSS VL: DIQMTQSPSSLSASVGDRVTITCQASQDISNYLNWYQQKPGKAPKLLIYDASNLETGVPSRFSGSGSGTDFTFTISSLQPEDIATYYCQQSDHYPTFGGGTKVEIKR | CHO-OX40 binding intensity (MFI) [2]: 253000 MFI; Kd [3]: 0.261 nM; Kd [4]: 2.11 nM; binding result [5]: no binding (tested: 100 nM); Fold difference [6]: 2400 fold
– | 1.04 | 0.14 | ADI-25650, Fab (Fab, V domains shown) VH: QVQLVESGGGVVQPGRSLRLSCAASGFTFSVYNMHWVRQAPGKGLEWVAVIAYDGSAKYYADSVKGRFTISRDNSKNTLYLQMNSLRAEDTAVYYCARGRPWYSETGTSAFDIWGQGTMVTVSS VL: DIQMTQSPSSLSASVGDRVTITCQASQDISNYLNWYQQKPGKAPKLLIYDASNLETGVPSRFSGSGSGTDFTFTISSLQPEDIATYYCQQSDHYPTFGGGTKVEIKR | –
70.6 | 63.9 | – | ADI-20112, Fab (Fab, V domains shown) VH: QVQLVESGGGVVQPGRSLRLSCAASGFTFSSYGMHWVRQAPGKGLEWVAVISYDGSNKYYADSVKGRFTISRDNSKNTLYLQMNSLRAEDTAVYYCARGRPWYSETGTSAFDIWGQGTMVTVSS VL: DIQMTQSPSSLSASVGDRVTITCQASQDISNYLNWYQQKPGKAPKLLIYDASNLETGVPSRFSGSGSGTDFTFTISSLQPEDIATYYCQQSDHYPTFGGGTKVEIKR | –
– | 1.8 | 0.18 | ADI-25654, Fab (Fab, V domains shown) VH: QVQLVESGGGVVQPGRSLRLSCAASGFTFRSYDMHWVRQAPGKGLEWVAYIAYDGSNKYYADSVKGRFTISRDNSKNTLYLQMNSLRAEDTAVYYCARGRPWYSETGTSAFDIWGQGTMVTVSS VL: DIQMTQSPSSLSASVGDRVTITCQASQDISNYLNWYQQKPGKAPKLLIYDASNLETGVPSRFSGSGSGTDFTFTISSLQPEDIATYYCQQSDHYPTFGGGTKVEIKR | –
– | 1.63 | 0.086 | ADI-25653, Fab (Fab, V domains shown) VH: QVQLVESGGGVVQPGRSLRLSCAASGFTFVSYNMHWVRQAPGKGLEWVAVIMYDGSAKYYADSVKGRFTISRDNSKNTLYLQMNSLRAEDTAVYYCARGRPWYSETGTSAFDIWGQGTMVTVSS VL: DIQMTQSPSSLSASVGDRVTITCQASQDISNYLNWYQQKPGKAPKLLIYDASNLETGVPSRFSGSGSGTDFTFTISSLQPEDIATYYCQQSDHYPTFGGGTKVEIKR | –
– | 2.32 | 0.17 | ADI-25651, Fab (Fab, V domains shown) VH: QVQLVESGGGVVQPGRSLRLSCAASGFTFSSRNMHWVRQAPGKGLEWVAVIAYDGSLKYYADSVKGRFTISRDNSKNTLYLQMNSLRAEDTAVYYCARGRPWYSETGTSAFDIWGQGTMVTVSS VL: DIQMTQSPSSLSASVGDRVTITCQASQDISNYLNWYQQKPGKAPKLLIYDASNLETGVPSRFSGSGSGTDFTFTISSLQPEDIATYYCQQSDHYPTFGGGTKVEIKR | –
– | 1.31 | 0.15 | ADI-25652, Fab (Fab, V domains shown) VH: QVQLVESGGGVVQPGRSLRLSCAASGFTFVSYNMHWVRQAPGKGLEWVAVIAYDGSVKYYADSVKGRFTISRDNSKNTLYLQMNSLRAEDTAVYYCARGRPWYSETGTSAFDIWGQGTMVTVSS VL: DIQMTQSPSSLSASVGDRVTITCQASQDISNYLNWYQQKPGKAPKLLIYDASNLETGVPSRFSGSGSGTDFTFTISSLQPEDIATYYCQQSDHYPTFGGGTKVEIKR | –
182 | – | – | ADI-20113, Fab (Fab, V domains shown) VH: QVQLVESGGGVVQPGRSLRLSCAASGFTFSSYGMHWVRQAPGKGLEWVAVISYDGSNKYYADSVKGRFTISRDNSKNTLYLQMNSLRAEDTAVYYCARGRPWYSETGTSAFDIWGQGTMVTVSS VL: EIVMTQSPATLSVSPGERATLSCRASQSVSSNLAWYQQKPGQAPRLLIYSASTRATGIPARFSGSGSGTEFTLTISSLQSEDFAVYYCQQHNVYPPYTFGGGTKVEIKR | –
– | – | – | ADI-23518, IgG1 format (antibody, V domains shown, Made in yeast) VH: QVQLQESGPGLVKPSQTLSLTCTVSGGSISSGASYWSWIRQHPGKGLEWIGYIYYSGETYYNPSLKSRVTISVDTSKNQFSLKLSSVTAADTAVYYCARDVGYPHYYGMDVWGQGTTVTVSS VL: EIVLTQSPGTLSLSPGERATLSCRASQSVSSSYLAWYQQKPGQAPRLLIYGASSRATGIPDRFSGSGSGTDFTLTISRLEPEDFAVYYCQQSERSPFTFGGGTKVEIKR | CHO-OX40 binding intensity (MFI) [2]: 173000 MFI; Kd [3]: 0.297 nM; Kd [4]: 1.08 nM; Fold difference [6]: 1480 fold
– | 5.36 | – | ADI-23519, Fab (Fab, V domains shown) VH: QVQLQESGPGLVKPSQTLSLTCTVSGGSISSGSSYWSWIRQHPGKGLEWIGYIYMSGETYYNPSLKSRVTISVDTSKNQFSLKLSSVTAADTAVYYCARDVGYPHYYGMDVWGQGTTVTVSS VL: EIVLTQSPGTLSLSPGERATLSCRASQSVSSSYLAWYQQKPGQAPRLLIYGASSRATGIPDRFSGSGSGTDFTLTISRLEPEDFAVYYCQQSERSPFTFGGGTKVEIKR | –
– | 7.16 | – | ADI-23518, Fab (Fab, V domains shown) VH: QVQLQESGPGLVKPSQTLSLTCTVSGGSISSGASYWSWIRQHPGKGLEWIGYIYYSGETYYNPSLKSRVTISVDTSKNQFSLKLSSVTAADTAVYYCARDVGYPHYYGMDVWGQGTTVTVSS VL: EIVLTQSPGTLSLSPGERATLSCRASQSVSSSYLAWYQQKPGQAPRLLIYGASSRATGIPDRFSGSGSGTDFTLTISRLEPEDFAVYYCQQSERSPFTFGGGTKVEIKR | –
21.8 | – | – | ADI-20066, Fab (Fab, V domains shown) VH: QLQLQESGPGLVKPSETLSLTCTVSGGSISSSSYYWGWIRQPPGKGLEWIGSIYYSGSTYYNPSLKSRVTISVDTSKNQFSLKLSSVTAADTAVYYCARDPGYSASPNWFDPWGQGTLVTVSS VL: EIVLTQSPGTLSLSPGERATLSCRASQSVSSSFLAWYQQKPGQAPRLLIYGASSRATGIPDRFSGSGSGTDFTLTISRLEPEDFAVYYCQQYDVFPITFGGGTKVEIKR | –
– | 3.79 | 0.16 | ADI-23515, Fab (Fab, V domains shown) VH: QVQLQESGPGLVKPSQTLSLTCTVSGGSIRSGAYYWSWIRQHPGKGLEWIGYIYYDGQTYYNPSLKSRVTISVDTSKNQFSLKLSSVTAADTAVYYCARDVGYPHYYGMDVWGQGTTVTVSS VL: EIVLTQSPGTLSLSPGERATLSCRASQSVSSSYLAWYQQKPGQAPRLLIYGASSRATGIPDRFSGSGSGTDFTLTISRLEPEDFAVYYCQQSERSPFTFGGGTKVEIKR | –
– | – | – | ADI-23519, IgG1 format (antibody, V domains shown, Made in yeast) VH: QVQLQESGPGLVKPSQTLSLTCTVSGGSISSGSSYWSWIRQHPGKGLEWIGYIYMSGETYYNPSLKSRVTISVDTSKNQFSLKLSSVTAADTAVYYCARDVGYPHYYGMDVWGQGTTVTVSS VL: EIVLTQSPGTLSLSPGERATLSCRASQSVSSSYLAWYQQKPGQAPRLLIYGASSRATGIPDRFSGSGSGTDFTLTISRLEPEDFAVYYCQQSERSPFTFGGGTKVEIKR | Kd [3]: 0.255 nM; Kd [4]: 1.1 nM
10.8 | – | – | ADI-20065, Fab (Fab, V domains shown) VH: QLQLQESGPGLVKPSETLSLTCTVSGGSISSSSYYWGWIRQPPGKGLEWIGSIYYSGSTYYNPSLKSRVTISVDTSKNQFSLKLSSVTAADTAVYYCARDPGYSASPNWFDPWGQGTLVTVSS VL: not shown | –
137 | – | – | ADI-20118, Fab (Fab, V domains shown) VH: QVQLVQSGAEVKKPGASVKVSCKASGYTFTSYAISWVRQAPGQGLEWMGWISAYNGNTNYAQKLQGRVTMTTDTSTSTAYMELRSLRSDDTAVYYCARSGGGSGPNWFDPWGQGTLVTVSS VL: not shown | –
